Tested on: M.HhaI DNA methyltransferase (Haemophilus parahaemolyticus)
Test: cleavage_in_vitro
Settings: up to 20% of compartmentalised genes protected from HhaI after 60-180 min; HaeIII and EcoRI sites not protected; SAM 80 uM, 25-30 C

## DIG-M.HhaI-Biotin 1167 bp fragment
  activity: 20%
